Assay [1] has as its target p62 ZZ domain (aa 120-171) (human, UniProt Q13501 120-171).
The target of assay [2] is p62 ZZ domain (aa 115-190) (human, UniProt Q13501 115-190). Kind of assay: MST.

This note sets out measurements from publication PMC6197226 (2018).

B1: RAEE peptide (peptide)
peptide: RAEE
Take B1: the Kd (in general, the free concentration of one partner at which half of the binding sites on the other are occupied at equilibrium, for simple one-to-one binding) was 14 µM in assay [1] and 3200 nM in assay [2].

B2: REEE peptide (peptide)
peptide: REEE
Take B2: the Kd in assay [1] came out at 5.6 µM; in assay [2], 1900 nM.
